Experimental data from the supplement of paper PMC9170038.

tested on: MS2 coat protein; assay: apparent KD of MS2 coat protein; higher = weaker reporter binding; details: Eterna round: R107; input ligand: none
Method in brief: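 Apparent KD was obtained for each design as the median of normalised binding-curve fits over its clusters. RNA switches transcribed on-chip from Illumina sequencing clusters were titrated with SNAP-549-labelled MS2 coat protein (twofold steps, 0.7 or 1.5 nM to 3 µM) in 100 mM Tris-HCl pH 7.5, 80 mM KCl, 4 mM MgCl2, without or with constant ligand.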

Point of comparison: “UGAGUUCGCUGAUGGGCUACGUCAGGUGAUACCAGCCACUCCCGCGGCCCUUGGCAGCACAUGAGGAUCACCCAUGUAGAGCUUG [Lazaceonus]”, “apparent KD of MS2 coat protein” value 15.7 nM. Against it:
- GGAUAGGACACGGCCGCCACUAUCUAGGAUACUAGCAACAUUUGGGUAUAUGAGGAUCACCCAUAUAGGACCGGGUGUCCUAUCG — 14-fold higher, 214 nM
- CCCAGUCAUAGCAAAGCAAAUAUACUCGAAGGAGCGUCAUAGUAGGCAGGUAGGUCGCGAGACAUGAGGAUCACCCAUGUAGAGA [ooomullin] — 2.5-fold higher, 39.7 nM
- GGAUAGGACACGGCCGCCACUACCUAGGAUACUAGCAACAUUUGGGUACAAGAGGAUCACCCUUGUAGGACCGGGUGUCCUAUCG — within 1.5-fold, 22.1 nM
- CCGUUUUAUGGCGACAUAGGGCGGACUGAAGGAGCGGUAAAACAGCCAGGUAGGUCGCAGAGAUCCACAUGAGGAUCACCCAUGU [!0.aC] — 2.5-fold higher, 39.1 nM
- UGGUGUAGGGUAAAUAGGAUUAGUACAGAAGGAGCGCGAAUAAACGCAGGUAGGUCGCUGGAAUAACAUGAGGAUCACCCAUGUC [Same State Arginine A GF 26] — 1.6-fold higher, 24.8 nM
- ACAUGAGGAUCACCCAUGUACAUGAGGGAAGGAGCGGUACAUGUGCCAGGUAGGUCGCCCAACAGCAUCAGCCAUGUACAACAGG [zqwmullin] — 10-fold higher, 162 nM
- AAUUAUCACGGAAGGAGCGUCAUGAAAUUGAUACAUGAGGAUCACCCAUGUGAGUGUUAGAGACAGGUAGGUCGCCGAUUAUUGA [JR_AAArginiB_Sub028] — 2-fold higher, 30.7 nM
- AGUAACAUGAGGAUCACCCAUGUAUGAGAAGGAGCGUGUUUUAACACAGGUAGGUCGCUCAAUAUUAAUUUAUUAGAUACAUUUA [JR_SSArginiA_Sub006] — 1.7-fold higher, 27 nM
- GGACUAACCAGAAGGAGCGACACGCAGAAACUGCUAAAUCCUCCGCACGAGGAUCACCCGUGUCAGGUAGGUCGCUGGUUAGUCG [ArgBX 28] — 2.9-fold higher, 45.5 nM
- GUUAUAGACGGAAGGAGCGCGACCACAUGAGGAUCACCCAUGUAUUGUGUUGGUAAUAGGUCGCAGGUAGGUCGCCGGUUAAUGA [#04 Same State - Arginine B] — 2.3-fold higher, 36.6 nM
- ACAUGAGGAUCACCCAUGUGUCCUCGAAAACGAGGACCGGUACGGCCGCCACUCGAAAUAAGCUGUUGACGAAAAGUCAGCAGCA [Mat - Exclusion - Trytophan A - D21] — 8-fold higher, 126 nM
- AUACAUGAGGAUCACCCAUGUCAUUCAGAAGGAGCGUCAUUUUAGACAGGUAGGUCGCUGAUAUUAUUCUUAUACUUUAUGUUUA [JR_ExcArginiA_Sub022] — within 1.5-fold, 17.7 nM
- CGCACAUGAGGAUCACCCAUGUGAGGGCGGCGAGGACCGGUACGGCCGCCACUCGCAGGACAUGAGGAUCACCCAUGUGCCGCCG [SSTA DOUBLE!!! :-D] — 35-fold higher, 548 nM
- GCGCGCGCCGAAAGGCGCGCGUGUUGCGAUACCAGCCCGGAAACGGGCCCUUGGCAGCGCACAUGAGGAUCACCCAUGUCAUGUU [Exclusion - Theophylline A Attempt #1 (HarryS)] — within 1.5-fold, 17.9 nM
- AUACAUGAGGAUCACCCAUGUGAUGGCCGGCGAGGACCGGUACGGCCGCCACUCGUGAUCCGUCCUGAGAGCAAAGCUCUCAGCA [Macete] — 9-fold higher, 141 nM
- CACAUGAGGAUCACCCAUGUCUGAACUGAAGGAGCGCUAAAUAAGGCAGGUAGGUCGCGGAAUUUUGUGUGCAUAUGCACAUGGG [9.P] — 1.8-fold higher, 27.9 nM
- AAUUCCUCACAUGAGGAUCACCCAUGUGAAGGAGCGCCGAAUAAGGCAGGUAGGUCGCACAUGGAAACCUCUACGAAAGUAGUAA [XArg-A 3 NuV1V2] — within 1.5-fold, 15.8 nM
- AAUUAAAACUGAAGGAGCGUCGUGCGUGGGUGCGUCCCACAUGAGGAUCACCCAUGUGGUUGACAGGUAGGUCGCAGAAUAAUUU [Exclusion - Arginine B] — 3.2-fold higher, 49.7 nM

same assay, conditions: Eterna round: R107; input ligand: theophylline 20 uM

Point of comparison: “ACAUGAGGAUCACCCAUGUGUCCUCGAAAACGAGGACCGGUACGGCCGCCACUCGAAAUAAGCUGUUGACGAAAAGUCAGCAGCA [Mat - Exclusion - Trytophan A - D21]”, “apparent KD of MS2 coat protein” value 173 nM. Against it:
- CACAUGAGGAUCACCCAUGUCUGAACUGAAGGAGCGCUAAACAAGGCAGGUAGGUCGCGGAAUUUUGUGUGCAUAUGCACAUGGG [9.O] — 7.8-fold lower, 22.3 nM
- GGAUAGGACACGGCCGCCACUAUCUAGGAUACUAGCAACAUUUGGGUAUAUGAGGAUCACCCAUAUAGGACCGGGUGUCCUAUCG — 1.9-fold higher, 330 nM
- UGACAUUGCUGCGAUACCAGACAUGAGGAUCACCCAUGUACCAAGAAAACGUACAUAAAUGUCCCUUGGCAGCGCAGCAAUGUCU [MAT - Exclusion Theophlline B - Mod of Eli - D25] — 3.4-fold higher, 593 nM
- CCCAGUCAUAGCAAAGCAAAUAUACUCGAAGGAGCGUCAUAGUAGGCAGGUAGGUCGCGAGACAUGAGGAUCACCCAUGUAGAGA [ooomullin] — 3.7-fold lower, 46.7 nM
- UUAUGAUGUUCCGAUACCAGCCAUGUGGUUCUAACUUAACAUGAGGAUCACCCAUGUACCGGCCCUUGGCAGCGGAUGUGGAUUA [Flamini] — 12-fold lower, 14.8 nM
- GGAUAGGACACGGCCGCCACUACCUAGGAUACUAGCAACAUUUGGGUACAAGAGGAUCACCCUUGUAGGACCGGGUGUCCUAUCG — 6.2-fold lower, 28 nM
- AAUACCGGAUCGGCCGCCACUGGUUGGCCCUGUGUACAUGAGGAUCACCCAUGUCCAUCCCAAGCCAGGACCGGGAUCUUUGUGU [Bedice] — 6.9-fold lower, 24.9 nM
- UAAAACAUGAGGAUCACCCAUGUAAAUGAUACCAGAGUGAUGAUCCUCCCUUGGCAGCAUAACGCUGAUUGAUUACAAUCAGCGA [Mat - Same State Theophlline A - Mod of Eli - D22] — within 1.5-fold, 160 nM
- CCGUUUUAUGGCGACAUAGGGCGGACUGAAGGAGCGGUAAAACAGCCAGGUAGGUCGCAGAGAUCCACAUGAGGAUCACCCAUGU [!0.aC] — 4-fold lower, 43.2 nM
- UGGUGUAGGGUAAAUAGGAUUAGUACAGAAGGAGCGCGAAUAAACGCAGGUAGGUCGCUGGAAUAACAUGAGGAUCACCCAUGUC [Same State Arginine A GF 26] — 5.7-fold lower, 30.6 nM
- ACAUGAGGAUCACCCAUGUACAUGAGGGAAGGAGCGGUACAUGUGCCAGGUAGGUCGCCCAACAGCAUCAGCCAUGUACAACAGG [zqwmullin] — 2.4-fold lower, 72.6 nM
- AAUUAUCACGGAAGGAGCGUCAUGAAAUUGAUACAUGAGGAUCACCCAUGUGAGUGUUAGAGACAGGUAGGUCGCCGAUUAUUGA [JR_AAArginiB_Sub028] — 4-fold lower, 43.1 nM
- AGUAACAUGAGGAUCACCCAUGUAUGAGAAGGAGCGUGUUUUAACACAGGUAGGUCGCUCAAUAUUAAUUUAUUAGAUACAUUUA [JR_SSArginiA_Sub006] — 3.8-fold lower, 45.1 nM
- AUAGUCUAGAGUGAUACCAGACUACAUGAGGAUCACCCAUGUAUCUUUUGGUUAUCAUGUGUCCCUUGGCAGCACGCAUGUAUAG [JR_ExcTheophyB_Sub013] — 14-fold lower, 12.4 nM
- GGACUAACCAGAAGGAGCGACACGCAGAAACUGCUAAAUCCUCCGCACGAGGAUCACCCGUGUCAGGUAGGUCGCUGGUUAGUCG [ArgBX 28] — 2.6-fold lower, 66.7 nM
- AACAUCUGGCGUGAUACCAGCCACAUGAGGAUCACCCAUGUCAACACUCGCAAUUGCGACGGCCCUUGGCAGCACGCAUCCUCAG [Sorioncege] — 5-fold lower, 34.8 nM
- GUUAUAGACGGAAGGAGCGCGACCACAUGAGGAUCACCCAUGUAUUGUGUUGGUAAUAGGUCGCAGGUAGGUCGCCGGUUAAUGA [#04 Same State - Arginine B] — 3.5-fold lower, 50.1 nM
- CCUCAAUAGACGGCCGCCACUGAGACAUGAGGAUACAUGAGGAUCACCCAUGUGGGUGUGUCACGCAGGACCGGGUCAAGACCCG [Tryp B SS t2] — 2.9-fold higher, 497 nM
- CGGUUUGUGAUGGAUACCAGCAGAGUGACUGUUUAUCCUGACAUGAGGAUCACCCAUGUGUGCCCUUGGCAGCUGUUGUGGGCUG [8.aA] — 1.6-fold lower, 111 nM
